Data taken from US10900903B2, “Protein structure analysis based on red-edge excitation shift (REES) spectroscopy” (UNIVERSITY OF BATH, priority 2016, dated 2021).
Values joined by “and” are separate entries in the source; they are usually repeats but may differ in a detail not shown here. Equal entries are not always repeated.

How the values were obtained:
[1] = High-pressure REES measurements; format: physicochemical
Source text: The CSM value is rather larger than reported for the denaturation study above (FIGS. 3A and 3B) and this is due to a different spectral window used to calculate the CSM for the pressure studies. This was necessary due to the optical setup of the pressure cell. […] Fitting the REES data to Eq 4 gives the pressure dependence of A, shown in FIG. 4D as the change in the fraction of A across the pressure range. […] The pressure dependence data can be adequately fit to a simple, phenomenological model that implies a single transition between two states with changing hydrostatic pressure as used previously:
Where Rp=83.13 cm3 mol^−1 bar K^−1 when the pressure, p, is measured in bar, K0 is the equilibrium constant for the change in the relative population of the ith conformational state represented by the magnitude of A from Eq 4, extrapolated to 0 bar and ΔVA is the apparent difference in the volume associated with this equilibrium transition.
The difference in sign is simply attributable to relative change in direction of the specific to signal. What is important is that the magnitude of ΔV is much larger for the REES effect compared to W6 emission. Indeed, this magnitude of pressure dependence is more consistent with global metrics of NEMO conformational change previously measured using the pressure dependence of 8-anilino naphthalene sulfonate (ANS) emission. The REES signal may therefore be reflective of the broader equilibrium of NEMO conformational states at sites distal to W6. […] The key finding from the pressure data in the present context is that the REES effect itself is pressure-dependent with the magnitude of A increasing with pressure.
An ISS high-pressure cell (ISS, Champaign, UL, USA), fitted with a custom fiber optic mounting to the fluorimeter and connected to a circulating water bath for temperature regulation was used to record all high-pressure measurements.
Where fi is the measured fluorescence intensity and λem is the emission wavelength. The importance of using a consistent wavelength range when reporting CSM data is stressed, as the magnitude will be dependent on the wavelength range chosen.

[2] = previously found; cited from earlier work
[3] = REES of NEMO W6 Trp emission: native, denatured, crowded; format: physicochemical; conditions: for R0: y-intercept of Eq 2 fit
Procedure: Typically the magnitude of the steady-state REES phenomenon is reported as the simple difference in CSM or ΔλEm^max. From FIG. 1, it is observed that a significant red shift in the emission spectra, with an increase in CSM of 17.7 nm and an increase in ΔλEm^max of 15 nm from λex 292-310 nm. Essentially the data are treated by the linear function: CSM=Rλex+CSM0 Eq 1.
Where R is the REES magnitude expressed as the change in CSM per nm of the excitation wavelength, λex.
The REES data in FIG. 2 can be best represented by a Gaussian probability distribution of the form:
Where A is the area, w is the full width at half-maximal (fwhm), m is the mid-point and R0 is the y-intercept and m=λREES^max, where λREES^max is the excitation wavelength that gives the largest change in the emission peak wavelength. The data in FIG. 2 are fit to Eq 2 and illustrate the low energy excitation at the red edge of the protein absorption spectrum. The fit of Eq 2 to the experimental data is excellent and captures the expected relationship described above.
In this case, the solvent relaxation will be very rapid and no REES effect observed, effectively because there is one discrete solvation state (fully solvated). NEMO is incubated in 6M guanidine to denature the protein and the corresponding change in the center of spectral mass (CSM) versus λex is shown in FIG. 3. The use of CSM is favoured instead of the magnitude of ΔλEm^max as this metric gives a more robust REES signal and the magnitude of may be highly error prone. However the results using ΔλEm^max are essentially the same. A decrease and red-shift in Trp emission is typically grossly correlated with denaturation of proteins. […] Note that this is not the REES effect but reflective of the solvent exposure of NEMO W6 on denaturation. […] Fitting to Eq 2 also gives a large decrease in the REES effect, A=0.37±0.4. The relative change in the REES effect is similar using either approach and this indicates strongly that a fitting approach using Eq 2 is robust.
Macromolecular crowding is a key feature of the intracellular milieu arising from the very high concentrations of other species in the cytosol. Crowding reduces the available solvent for other molecules in solution through the excluded volume effect, which effectively increase the concentration of, for example, protein and restricts the accessible conformational states through hard-core repulsions between the crowding agent and the protein. Macromolecular crowding can alter protein conformation, typically inducing folding and stabilization. Crowding therefore potentially provides a means to explore the contrasting physical effect of denaturation on the REES effect, where the protein is more folded/stabilized. A protein has been used as the crowding agent, Sbi (reported above), instead of a synthetic crowding agent since protein is much more consistent with the intracellular environment. […] Incubating NEMO with a high concentration of Sbi (20 mg/ml) gives a dramatic change to the both the absolute Trp emission and also the REES effect as shown in FIG. 3. […] Intriguingly, the REES effect is much larger in the crowded environment giving a relative increase in A of 2.24±0.51. […] This is consistent with the putative molecular model of NEMO activity that is based on allosterically regulated NEMO conformational change. Below, the potential mechanistic role of an increased number of available conformational states with respect to ligand interactions is described.
Full length human NEMO was expressed and purified essentially as described previously. Purified protein was dialysed extensively into a buffer comprising 50 mM Tris-Cl pH 8.0, 50 mM NaCl and 5 mM DTT. All measurements were made in this buffer unless otherwise stated. IKK-β and IκBα peptides were commercially synthesised by Genscript, having a purity of >98% and are of the sequence […] and […], respectively. […]

[4] = pressure dependence of emission, ref [23]; cited from earlier work
[5] = QUBES values of native mAbs; format: physicochemical; conditions: native mAb
Source text: First, the combined excitation and emission spectrum is monitored for each mAb giving a high information content fluorescence data set (FIG. 13A). […] A simpler exponential function is fitted, CSM=CSM0+Ae^RΔλ^Ex Eq 1.
Where CSM0 is the CSM value independent of the excitation wavelength, λEx, determined by the amplitude, A, of an exponential with a curvature determined by R. Fitting with this function instead of a Gaussian or other probability distribution dramatically improves the speed of data processing due to the lower dimensionality of the model but still retains the key aspects of the previous model, namely quantification of the magnitude of the fluorescence edge-shift. The plot of the resulting parameters yields a single three-dimensional data point (FIG. 13B, inset; the QUBES value), which is a direct quantification of the extremely complex spectral fingerprint shown in FIG. 13A.
All fluorescence measurements were performed using a Perkin Elmer LS50B Luminescence Spectrometer (Perkin Elmer, Waltham, Mass., USA) connected to a circulating water bath for temperature regulation (±1° C.). […] Tryptophan emission was monitored from 325 to 500 nm. […] The centre of spectral mass (CSM) was calculated using the following equation: […]
Where fi is the measured fluorescence intensity and Δem is the emission wavelength. […]

| Substance | ΔλEm^max ([1]; 10° C., 1 bar, λex=295 nm) [nm] | increase in W6 CSM with increasing pressure ([1]; λex=292 nm) [nm] | increase in CSM from 1 to 2000 bar ([1]; λex=310 nm) [nm] | random coil content [2] [%] | α-helical content [2] [%] | R (fit to Eq 1), change in CSM per nm of λex ([3]; absolute value) | A (REES magnitude, fit to Eq 2) ([3]; relative to NEMO alone, native, denatured (6M guanidine), crowded (Sbi 20 mg/ml)) | R (fit to Eq 1), relative ([3]; relative to NEMO alone, native, denatured, crowded) | R0 ([3]; native, denatured, crowded) [nm] | R0 ([3]; native, denatured, crowded, listed as NEMO) [nm] | R0 ([3]; native, denatured, crowded, listed as native NEMO) [nm] | increase in CSM (red shift) ([3]; λex 292-310 nm) [nm] | increase in ΔλEm^max ([3]; λex 292-310 nm) [nm] | ΔV for W6 (Trp) emission [4] | QUBES value (A, R), predicted rigidity/flexibility [5] |
| --- | --- | --- | --- | --- | --- | --- | --- | --- | --- | --- | --- | --- | --- | --- | --- |
| NEMOnative: Full length human NF-κB essential modulator; W6 is its single intrinsic Trp residue | 348 | 3.0 | 8.9 | ~40 | ~50 | 0.96 | 1 ± 0.1 | 1 ± 0.13 | 363.2 ± 0.19 | 363.2±0.19 | 363.2±0.19 | 17.7 | 15 | 0.81 cm3 mol^−1 and ~1.6±0.4 cm3 mol^−1 |  |
| Nivolumab: human therapeutic mAb |  |  |  |  |  |  |  |  |  |  |  |  |  |  | high A and small R value |
| Pertuzumab: humanised therapeutic mAb |  |  |  |  |  |  |  |  |  |  |  |  |  |  | small A and high R value |
